Test results from patent publication US20130209454A1.

Legend:
[1] = target: Env of HIV-1 strain AC10.0.29 (HIV-1); assay: cell-based or functional assay
[2] = target: Env of HIV-1 strain CAP210.2.00.E8 (HIV-1); assay: cell-based or functional assay
[3] = target: Env of HIV-1 strain CAP45.2.00.G3 (HIV-1); assay: cell-based or functional assay
[4] = target: Env of HIV-1 strain Du172.17 (HIV-1); assay: cell-based or functional assay
[5] = target: Env of HIV-1 strain SC422661.8 (HIV-1); assay: cell-based or functional assay
[6] = target: Env of HIV-1 strain TRO.11 (HIV-1); assay: cell-based or functional assay
[7] = target: HIV-1 strain AC10.0.29 envelope (gp120) (HIV-1); assay: cell-based or functional assay
[8] = target: HIV-1 strain CAP210.2.00.E8 envelope (gp120) (HIV-1); assay: cell-based or functional assay
[9] = target: HIV-1 strain CAP45.2.00.G3 envelope (gp120) (HIV-1); assay: cell-based or functional assay
[10] = target: HIV-1 strain Du172.17 envelope (gp120) (HIV-1); assay: cell-based or functional assay
[11] = target: HIV-1 strain SC422661.8 envelope (gp120) (HIV-1); assay: cell-based or functional assay
[12] = target: HIV-1 strain TRO.11 envelope (gp120) (HIV-1); assay: cell-based or functional assay
[13] = target: gp120 (ZM135M.PL10a) of the CD4-gp120 complex structure (HIV-1); assay: CD4-gp120 complex structure, AreaIMol, 1.4 Å probe
[14] = target: 93TH057 gp120 core (HIV-1)
[15] = target: CAP244.2.00.D3 gp120 core (HIV-1)
[16] = target: Q259.d2.17 gp120 core (HIV-1)
[17] = target: HIV-1 Env of strain AC10.0.29 (HIV-1); assay: cell-based or functional assay
[18] = target: HIV-1 Env of strain CAP45.2.00.G3 (HIV-1); assay: cell-based or functional assay
[19] = target: HIV-1 Env of strain QH0692.42 (HIV-1); assay: cell-based or functional assay
[20] = target: HIV-1 Env of strain SC422661.8 (HIV-1); assay: cell-based or functional assay
[21] = target: HIV-1 Env of strain T257-31 (HIV-1); assay: cell-based or functional assay
[22] = target: HIV-1 Env of strain TRO.11 (HIV-1); assay: cell-based or functional assay
[23] = target: HIV-1 Env of strain ZM214M.PL15 (HIV-1); assay: cell-based or functional assay
[24] = target: 93TH057 gp120 core (HIV-1); assay: structure PDB 3NGB, AreaIMol, 1.4 Å probe
[25] = target: HIV-1 Env of strain 3016.v5.c45 (HIV-1); assay: cell-based or functional assay
[26] = target: HIV-1 Env of strain C2101.c01 (HIV-1); assay: cell-based or functional assay
[27] = target: HIV-1 strain QH0692.42 envelope (gp120) (HIV-1); assay: cell-based or functional assay
[28] = target: HIV-1 strain T257-31 envelope (gp120) (HIV-1); assay: cell-based or functional assay
[29] = target: HIV-1 strain ZM214M.PL15 envelope (gp120) (HIV-1); assay: cell-based or functional assay

Sequence of NIH45-46 Fab (C-terminal 6x-His tagged heavy chain, SPR) (VH): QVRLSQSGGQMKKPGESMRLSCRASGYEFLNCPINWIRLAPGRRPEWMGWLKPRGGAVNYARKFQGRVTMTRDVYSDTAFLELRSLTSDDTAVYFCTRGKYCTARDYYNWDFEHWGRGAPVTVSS
Sequence of NIH45-46 Fab (C-terminal 6x-His tagged heavy chain, SPR) (V domain): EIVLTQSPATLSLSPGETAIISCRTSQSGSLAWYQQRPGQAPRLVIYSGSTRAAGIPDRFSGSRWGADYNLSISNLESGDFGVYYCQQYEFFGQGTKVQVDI

3BNC60 T54A (antibody)
IC50 [1]: 2.6 µg/mL | IC50 [2]: 0.1 µg/mL | IC50 [3]: > 50 µg/mL | IC50 [4]: > 50 µg/mL | IC50 [5]: 0.027 µg/mL | IC50 [6]: 0.003 µg/mL

3BNC60 T54D (antibody)
IC50 [1]: > 50 µg/mL | IC50 [2]: > 50 µg/mL | IC50 [3]: > 50 µg/mL | IC50 [4]: > 50 µg/mL | IC50 [5]: 0.556 µg/mL | IC50 [6]: 0.036 µg/mL

3BNC60 T54E (antibody)
IC50 [1]: 2.92 µg/mL | IC50 [2]: > 50 µg/mL | IC50 [3]: > 50 µg/mL | IC50 [4]: > 50 µg/mL | IC50 [5]: 0.075 µg/mL | IC50 [6]: 0.004 µg/mL

3BNC60 T54F (antibody)
IC50 [2]: 3.4 µg/mL | IC50 [4]: 2.2 µg/mL | IC50 [5]: 0.025 µg/mL | IC50 [6]: 0.023 µg/mL

3BNC60 T54G (antibody)
IC50 [1]: 0.623 µg/mL | IC50 [2]: 11.9 µg/mL | IC50 [3]: > 50 µg/mL | IC50 [4]: 0.02 µg/mL | IC50 [5]: 0.01 µg/mL | IC50 [6]: 0.0003 µg/mL

3BNC60 T54H (antibody)
IC50 [1]: > 50 µg/mL | IC50 [2]: 1.6 µg/mL | IC50 [3]: 6.64 µg/mL | IC50 [4]: 0.055 µg/mL | IC50 [5]: 0.003 µg/mL | IC50 [6]: 0.011 µg/mL

3BNC60 T54I (antibody)
IC50 [1]: > 50 µg/mL | IC50 [2]: > 50 µg/mL | IC50 [3]: > 50 µg/mL | IC50 [4]: 21.8 µg/mL | IC50 [5]: 0.054 µg/mL | IC50 [6]: 0.027 µg/mL

3BNC60 T54K (antibody)
IC50 [1]: > 50 µg/mL | IC50 [2]: > 50 µg/mL | IC50 [3]: > 50 µg/mL | IC50 [4]: > 50 µg/mL | IC50 [5]: 0.024 µg/mL | IC50 [6]: 0.029 µg/mL

3BNC60 T54L (antibody)
IC50 [1]: > 50 µg/mL | IC50 [2]: 30.7 µg/mL | IC50 [3]: > 50 µg/mL | IC50 [4]: 3.59 µg/mL | IC50 [5]: 0.034 µg/mL | IC50 [6]: 0.019 µg/mL

3BNC60 T54M (antibody)
IC50 [1]: > 50 µg/mL | IC50 [2]: 25 µg/mL | IC50 [3]: > 50 µg/mL | IC50 [4]: 1.43 µg/mL | IC50 [5]: 0.032 µg/mL | IC50 [6]: 0.019 µg/mL

3BNC60 T54N (antibody)
IC50 [1]: > 50 µg/mL | IC50 [2]: 16.3 µg/mL | IC50 [3]: 16.7 µg/mL | IC50 [4]: 0.662 µg/mL | IC50 [5]: 0.025 µg/mL | IC50 [6]: 0.008 µg/mL

3BNC60 T54P (antibody)
IC50 [1]: > 50 µg/mL | IC50 [2]: > 50 µg/mL | IC50 [3]: > 50 µg/mL | IC50 [4]: > 50 µg/mL | IC50 [5]: 0.143 µg/mL | IC50 [6]: 0.048 µg/mL

3BNC60 T54Q (antibody)
IC50 [1]: 9.04 µg/mL | IC50 [2]: 7.4 µg/mL | IC50 [3]: 6.66 µg/mL | IC50 [4]: 0.243 µg/mL | IC50 [5]: 0.038 µg/mL | IC50 [6]: 0.006 µg/mL

3BNC60 T54R (antibody)
IC50 [1]: > 50 µg/mL | IC50 [2]: 5 µg/mL | IC50 [3]: > 50 µg/mL | IC50 [4]: 2.15 µg/mL | IC50 [5]: 0.014 µg/mL | IC50 [6]: 0.006 µg/mL

3BNC60 T54S (antibody)
IC50 [1]: > 50 µg/mL | IC50 [2]: 14.7 µg/mL | IC50 [3]: 41.7 µg/mL | IC50 [4]: 0.92 µg/mL | IC50 [5]: 0.036 µg/mL | IC50 [6]: 0.02 µg/mL

3BNC60 T54V (antibody)
IC50 [1]: > 50 µg/mL | IC50 [2]: 42.8 µg/mL | IC50 [3]: > 50 µg/mL | IC50 [4]: 7.36 µg/mL | IC50 [5]: 0.039 µg/mL | IC50 [6]: 0.024 µg/mL

3BNC60 T54W (antibody)
IC50 [2]: 2.6 µg/mL | IC50 [4]: 2.2 µg/mL | IC50 [5]: 0.031 µg/mL | IC50 [6]: 0.021 µg/mL

3BNC60 T54W IgG (antibody)
neutralization IC50 [7]: 3.1 µg/mL | neutralization IC50 [8]: 5 µg/mL | neutralization IC50 [9]: 19 µg/mL | neutralization IC50 [10]: 0.04 µg/mL | neutralization IC50 [11]: 0.1 µg/mL | neutralization IC50 [12]: 0.06 µg/mL

3BNC60 T54Y (antibody)
IC50 [2]: 2.9 µg/mL | IC50 [4]: 2.2 µg/mL | IC50 [5]: 0.02 µg/mL | IC50 [6]: 0.012 µg/mL

3BNC117 T54W IgG (antibody)
neutralization IC50 [7]: 2.8 µg/mL | neutralization IC50 [8]: 2.8 µg/mL | neutralization IC50 [9]: 23 µg/mL | neutralization IC50 [10]: 0.9 µg/mL | neutralization IC50 [11]: 0.07 µg/mL | neutralization IC50 [12]: 0.6 µg/mL

CD4 (from UniProt P01730 26-208) (receptor)
buried surface area on gp120, Inner domain & bridging sheet [13]: 400 Å^2 | buried surface area on gp120, Loop D + NAG [13]: 136 Å^2 | buried surface area on gp120, Outer domain exit loop [13]: 97 Å^2 | buried surface area on gp120, V5 [13]: 155 Å^2 | buried surface area on gp120, β-15/α-3 + NAG [13]: 263 Å^2 | buried surface area on gp120, β-24 [13]: 14 Å^2 | buried surface area, Interface on Fab or CD4 [13]: 1060 Å^2 | buried surface area, Total gp120 [13]: 973 Å^2

NIH45-46 Fab (C-terminal 6x-His tagged heavy chain, SPR)
Kd [14]: 160 nM | koff [14]: 0.0048 s⁻¹ | kon [14]: 31000 M⁻¹ s⁻¹ | Kd [15]: 97 nM | koff [15]: 0.0067 s⁻¹ | kon [15]: 69000 M⁻¹ s⁻¹ | Kd [16]: 190 nM | koff [16]: 0.01 s⁻¹ | kon [16]: 55000 M⁻¹ s⁻¹

NIH45-46 Y99dA IgG (antibody)
neutralization IC50 [17]: 4.4 µg/mL | neutralization IC50 [18]: > 50 µg/mL | neutralization IC50 [19]: 2.1 µg/mL | neutralization IC50 [20]: 0.08 µg/mL | neutralization IC50 [21]: 2.4 µg/mL | neutralization IC50 [22]: > 50 µg/mL | neutralization IC50 [23]: 1.1 µg/mL

VRC01 Fab (structure of VRC01-93TH057, PDB code 3NGB)
buried surface area on gp120, Inner domain & bridging sheet [24]: 157 Å^2 | buried surface area on gp120, Loop D + NAG [24]: 433 Å^2 | buried surface area on gp120, Outer domain exit loop [24]: 57 Å^2 | buried surface area on gp120, V5 [24]: 328 Å^2 | buried surface area on gp120, β-15/α-3 + NAG [24]: 208 Å^2 | buried surface area on gp120, β-24 [24]: 43 Å^2 | buried surface area, Interface on Fab or CD4 [24]: 1210 Å^2 | buried surface area, Total gp120 [24]: 1220 Å^2 | total buried surface area, light chain with gp120 [24]: 681 Å^2 | buried surface area, CDR3 ([24]; VRC01 heavy chain): 117 Å^2 | buried surface area, Interface on gp120 ([24]; VRC01 heavy chain): 882 Å^2 | buried surface area, Total Fab ([24]; VRC01 heavy chain): 892 Å^2 | buried surface area, CDR3 ([24]; VRC01 light chain): 165 Å^2 | buried surface area, Interface on gp120 ([24]; VRC01 light chain): 367 Å^2 | buried surface area, Total Fab ([24]; VRC01 light chain): 314 Å^2

VRC01 IgG (antibody)
neutralization IC50 [25]: 0.16 µg/mL | neutralization IC50 [26]: 0.36 µg/mL | neutralization IC50 [7]: 0.8 µg/mL | neutralization IC50 [9]: 1.8 µg/mL | neutralization IC50 [27]: 0.7 µg/mL | neutralization IC50 [11]: 0.2 µg/mL | neutralization IC50 [28]: 1 µg/mL | neutralization IC50 [12]: 0.5 µg/mL | neutralization IC50 [29]: 0.8 µg/mL

VRC01 heavy chain paired with the NIH45-46 light chain (IgG) (antibody)
neutralization IC50 [7]: 4.5 µg/mL | neutralization IC50 [9]: > 50 µg/mL | neutralization IC50 [27]: 1.2 µg/mL | neutralization IC50 [11]: 0.4 µg/mL | neutralization IC50 [28]: 15 µg/mL | neutralization IC50 [12]: 24 µg/mL | neutralization IC50 [29]: 1.8 µg/mL
